Source: IntAct's records for PubMed 31515488

B1: Keratin, type I cuticular Ha8 (Homo sapiens), O76015 (parent)
chain: MTSSYSSSSCPLGCTMAPGARNVSVSPIDIGCQPGAEANIAPMCLLANVAHANRVRVGSTPLGRPSLCLPPTCHTACPLPGTCHIPGNIGICGAYGENTLNGHEKETMQFLNDRLANYLEKVRQLEQENAELEATLLERSKCHESTVCPDYQSYFHTIEELQQKILCSKAENARLIVQIDNAKLAADDFRIKLESERSLRQLVEADKCGTQKLLDDATLAKADLEAQQESLKEEQLSLKSNHEQEVKILRSQLGEKLRIELDIEPTIDLNRVLGEMRAQYEAMLETNRQDVEQWFQAQSEGISLQDMSCSEELQCCQSEILELRCTVNALEVERQAQHTLKDCLQNSLCEAEDRFGTELAQMQSLISNVEEQLSEIRADLERQNQEYQVLLDVKTRLENEIATYRNLLESEDCKLPCNPCSTSPSCVTAPCAPRPSCGPCTTCGPTCGASTTGSRF
B2: Protein FAM9B (Homo sapiens), Q8IZU0 (parent)
chain: MAAWGKKHAGKDPVRDECEERNRFTETREEDVTDEHGEREPFAETDEHTGANTKKPEDTAEDLTAKRKRMKMDKTCSKTKNKSKHALRKKQLKRQKRDYIHSLKLLNVLEEYITDEQKEEEEEEGEEEELIRIFQEQQKKWQQYRSVRRERLKEMKLLRDQFVKALEDFEDLCDRVFSDEDSELDN
partner: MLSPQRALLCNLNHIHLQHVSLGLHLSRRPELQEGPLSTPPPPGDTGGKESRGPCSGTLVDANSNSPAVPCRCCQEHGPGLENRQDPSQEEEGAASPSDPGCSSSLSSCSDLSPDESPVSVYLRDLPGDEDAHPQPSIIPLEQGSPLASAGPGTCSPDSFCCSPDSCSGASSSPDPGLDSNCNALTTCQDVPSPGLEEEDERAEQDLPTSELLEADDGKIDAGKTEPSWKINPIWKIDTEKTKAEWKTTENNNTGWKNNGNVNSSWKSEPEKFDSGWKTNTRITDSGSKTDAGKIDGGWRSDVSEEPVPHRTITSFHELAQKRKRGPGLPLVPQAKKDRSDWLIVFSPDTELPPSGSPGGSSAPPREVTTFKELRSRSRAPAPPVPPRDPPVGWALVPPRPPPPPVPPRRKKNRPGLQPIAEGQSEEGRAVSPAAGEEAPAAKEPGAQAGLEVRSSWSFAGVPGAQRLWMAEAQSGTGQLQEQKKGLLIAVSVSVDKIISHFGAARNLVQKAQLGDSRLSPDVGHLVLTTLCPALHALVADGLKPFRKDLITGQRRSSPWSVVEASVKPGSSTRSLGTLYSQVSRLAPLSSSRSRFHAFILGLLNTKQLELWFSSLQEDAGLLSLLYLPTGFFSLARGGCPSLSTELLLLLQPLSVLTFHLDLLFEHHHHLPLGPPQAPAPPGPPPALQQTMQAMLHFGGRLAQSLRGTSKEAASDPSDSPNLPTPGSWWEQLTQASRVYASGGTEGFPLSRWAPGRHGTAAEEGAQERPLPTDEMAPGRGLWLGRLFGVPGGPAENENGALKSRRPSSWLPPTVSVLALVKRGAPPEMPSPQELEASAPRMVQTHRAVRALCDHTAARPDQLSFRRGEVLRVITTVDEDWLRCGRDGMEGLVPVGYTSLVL
B3: Testis-specific protein 10-interacting protein (Homo sapiens), Q3SY00 (parent)
chain: MGQDTDMLNTYQQLVRTPSVRPGQDVRLQAPGTRTGLLKLLSTVSQDKQGCLGSGDGVPNQDLQQRSQSSRQTAKKDRKPRGQSKKGQGSEESEDHFPLLPRKPSFPFQWAWESIATDVRAVLQPSSPTPGHQALPMPSSFSQRQSRRKSTANLPEAHGCCWKTEAQNLKARQQLGAWGGVSIPTGKGELGSEPPSGLQLPGRRPGSGSASDKQVQLQSLGAEEAERGLSSGVLPQRPRRGSISEEEQFSEATEEAEEGEHRTPCRRRAGCQRKGQISGEEASDEGEVQGQSQGSSPSFNNLRRRQWRKTRAKELQGPWDLEKLHRQLQRDLDCGPQKLPWKTLRAAFQASKRNGKAYASGYDETFVSANLPNRTFHKRQEATRSLLQAWERQRQEERQQAELRRARTQHVQRQVAHCLAAYAPRGSRGPGAAQRKLEELRRQERQRFAEYQAELQGIQHRVQARPFLFQQAMQANARLTVTRRFSQVLSALGLDEEQLLSEAGKVDREGTPRKPRSHRSMGVRMEHSPQRPPRTEPTGSQPDRHYNPSLDPECSP

Variants of: B1
Conditions: with k2c4_human KRT4, P19013
Sequence of k2c4_human KRT4, P19013 (P19013 whole entry): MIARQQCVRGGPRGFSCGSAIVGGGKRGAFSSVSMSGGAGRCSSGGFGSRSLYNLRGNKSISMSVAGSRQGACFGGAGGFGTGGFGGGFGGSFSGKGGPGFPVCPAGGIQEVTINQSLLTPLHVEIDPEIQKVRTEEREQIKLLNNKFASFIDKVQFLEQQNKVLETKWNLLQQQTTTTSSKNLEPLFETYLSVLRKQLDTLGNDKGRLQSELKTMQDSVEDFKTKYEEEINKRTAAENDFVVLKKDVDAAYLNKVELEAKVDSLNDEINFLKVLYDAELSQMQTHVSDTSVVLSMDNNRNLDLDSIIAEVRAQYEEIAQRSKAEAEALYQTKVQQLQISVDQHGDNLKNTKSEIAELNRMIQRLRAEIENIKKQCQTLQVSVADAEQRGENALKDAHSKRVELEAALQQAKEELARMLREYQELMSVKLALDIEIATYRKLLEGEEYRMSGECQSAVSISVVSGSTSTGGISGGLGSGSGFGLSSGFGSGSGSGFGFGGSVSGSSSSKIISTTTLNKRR

Row | effect of a mutation on the interaction | Variant
1 | with no effect | A205S

Variants of: B1
Conditions: with k2c8_human KRT8, P05787
Sequence of k2c8_human KRT8, P05787 (P05787 whole entry): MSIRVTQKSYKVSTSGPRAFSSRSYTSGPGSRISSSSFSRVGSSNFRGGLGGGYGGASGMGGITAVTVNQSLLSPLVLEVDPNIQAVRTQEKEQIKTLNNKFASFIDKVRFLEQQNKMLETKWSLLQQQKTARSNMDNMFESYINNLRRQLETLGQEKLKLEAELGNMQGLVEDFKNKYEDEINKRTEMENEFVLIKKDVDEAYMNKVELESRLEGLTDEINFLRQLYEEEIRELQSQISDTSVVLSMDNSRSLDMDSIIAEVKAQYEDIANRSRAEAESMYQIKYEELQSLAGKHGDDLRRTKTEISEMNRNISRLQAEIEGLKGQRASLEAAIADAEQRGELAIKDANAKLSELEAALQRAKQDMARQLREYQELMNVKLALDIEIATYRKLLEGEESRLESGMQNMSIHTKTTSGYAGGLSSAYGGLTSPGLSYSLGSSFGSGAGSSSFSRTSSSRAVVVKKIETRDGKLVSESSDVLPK

Row | effect of a mutation on the interaction | Variant
2 | with no effect | A205S

Variants of: B1
Conditions: with KRT6A

Row | effect of a mutation on the interaction | Variant
3 | with no effect | A205S

Variants of: B1
Conditions: with k22e_human KRT2, P35908
Sequence of k22e_human KRT2, P35908 (P35908 whole entry): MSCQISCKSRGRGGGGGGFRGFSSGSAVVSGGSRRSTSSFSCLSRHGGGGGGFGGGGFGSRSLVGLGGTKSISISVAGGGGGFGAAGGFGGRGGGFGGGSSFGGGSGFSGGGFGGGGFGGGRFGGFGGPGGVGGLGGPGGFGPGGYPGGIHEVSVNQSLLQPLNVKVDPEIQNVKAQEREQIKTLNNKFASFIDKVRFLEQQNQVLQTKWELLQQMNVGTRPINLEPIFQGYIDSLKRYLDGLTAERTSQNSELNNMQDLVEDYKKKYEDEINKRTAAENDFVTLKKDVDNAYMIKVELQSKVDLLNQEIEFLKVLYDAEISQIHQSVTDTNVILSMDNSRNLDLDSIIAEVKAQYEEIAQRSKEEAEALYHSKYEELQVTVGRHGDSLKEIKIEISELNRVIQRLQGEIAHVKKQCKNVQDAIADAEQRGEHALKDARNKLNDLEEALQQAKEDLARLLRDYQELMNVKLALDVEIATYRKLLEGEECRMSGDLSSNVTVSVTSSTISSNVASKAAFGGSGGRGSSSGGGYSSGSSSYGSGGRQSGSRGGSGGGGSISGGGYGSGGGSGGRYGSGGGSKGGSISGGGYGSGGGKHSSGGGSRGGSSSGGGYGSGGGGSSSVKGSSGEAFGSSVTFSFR

Row | effect of a mutation on the interaction | Variant
4 | with no effect | A205S

Variants of: B2
Conditions: with rusc1_human RUSC1, Q9BVN2

Row | effect of a mutation on the interaction | Variant
5 | with no effect | R23H

Variants of: B3
Conditions: with mtus2_human MTUS2, Q5JR59
Sequence of mtus2_human MTUS2, Q5JR59 (Q5JR59 whole entry): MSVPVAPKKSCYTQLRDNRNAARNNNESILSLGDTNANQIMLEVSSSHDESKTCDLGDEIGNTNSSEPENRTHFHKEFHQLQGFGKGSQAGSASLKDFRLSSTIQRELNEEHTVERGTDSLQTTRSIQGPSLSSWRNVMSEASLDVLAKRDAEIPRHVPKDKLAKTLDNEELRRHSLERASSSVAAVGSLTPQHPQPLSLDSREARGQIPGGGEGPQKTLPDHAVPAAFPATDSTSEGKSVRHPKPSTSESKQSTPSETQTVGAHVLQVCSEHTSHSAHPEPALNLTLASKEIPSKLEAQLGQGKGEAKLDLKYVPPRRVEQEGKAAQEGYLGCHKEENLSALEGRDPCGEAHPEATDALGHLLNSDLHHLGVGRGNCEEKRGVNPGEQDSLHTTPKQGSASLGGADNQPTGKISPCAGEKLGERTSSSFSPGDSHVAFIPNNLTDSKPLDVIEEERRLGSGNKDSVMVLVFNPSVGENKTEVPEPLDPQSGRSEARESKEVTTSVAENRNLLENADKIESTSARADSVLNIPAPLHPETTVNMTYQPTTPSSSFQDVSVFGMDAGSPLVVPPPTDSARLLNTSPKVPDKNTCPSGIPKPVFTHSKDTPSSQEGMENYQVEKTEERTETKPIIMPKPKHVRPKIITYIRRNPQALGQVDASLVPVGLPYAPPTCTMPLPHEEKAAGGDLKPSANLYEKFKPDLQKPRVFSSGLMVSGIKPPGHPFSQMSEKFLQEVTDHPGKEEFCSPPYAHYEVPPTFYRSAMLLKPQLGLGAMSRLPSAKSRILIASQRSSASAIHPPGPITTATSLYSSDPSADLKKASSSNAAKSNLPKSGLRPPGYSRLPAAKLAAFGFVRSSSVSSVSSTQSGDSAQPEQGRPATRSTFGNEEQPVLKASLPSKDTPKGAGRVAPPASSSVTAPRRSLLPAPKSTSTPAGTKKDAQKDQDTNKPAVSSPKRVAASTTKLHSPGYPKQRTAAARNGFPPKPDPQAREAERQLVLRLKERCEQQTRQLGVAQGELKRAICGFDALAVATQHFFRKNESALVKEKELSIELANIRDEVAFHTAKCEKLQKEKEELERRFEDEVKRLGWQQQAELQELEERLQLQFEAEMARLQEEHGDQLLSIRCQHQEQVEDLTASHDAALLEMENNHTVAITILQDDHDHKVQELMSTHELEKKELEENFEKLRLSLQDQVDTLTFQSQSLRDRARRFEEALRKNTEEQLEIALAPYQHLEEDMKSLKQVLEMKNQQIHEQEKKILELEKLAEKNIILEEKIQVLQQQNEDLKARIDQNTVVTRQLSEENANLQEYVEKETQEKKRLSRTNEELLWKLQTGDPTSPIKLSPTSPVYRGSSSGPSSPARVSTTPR

Row | effect of a mutation on the interaction | Variant
6 | with no effect | R237S
7 | with no effect | H96L
8 | with no effect | S242L
9 | with no effect | R303Q
10 | with no effect | S292N
11 | with no effect | D25E
12 | with no effect | V215A
13 | with no effect | R305P

Variants of: B3
Conditions: with cep70_human CEP70, Q8NHQ1
Sequence of cep70_human CEP70, Q8NHQ1 (Q8NHQ1 whole entry): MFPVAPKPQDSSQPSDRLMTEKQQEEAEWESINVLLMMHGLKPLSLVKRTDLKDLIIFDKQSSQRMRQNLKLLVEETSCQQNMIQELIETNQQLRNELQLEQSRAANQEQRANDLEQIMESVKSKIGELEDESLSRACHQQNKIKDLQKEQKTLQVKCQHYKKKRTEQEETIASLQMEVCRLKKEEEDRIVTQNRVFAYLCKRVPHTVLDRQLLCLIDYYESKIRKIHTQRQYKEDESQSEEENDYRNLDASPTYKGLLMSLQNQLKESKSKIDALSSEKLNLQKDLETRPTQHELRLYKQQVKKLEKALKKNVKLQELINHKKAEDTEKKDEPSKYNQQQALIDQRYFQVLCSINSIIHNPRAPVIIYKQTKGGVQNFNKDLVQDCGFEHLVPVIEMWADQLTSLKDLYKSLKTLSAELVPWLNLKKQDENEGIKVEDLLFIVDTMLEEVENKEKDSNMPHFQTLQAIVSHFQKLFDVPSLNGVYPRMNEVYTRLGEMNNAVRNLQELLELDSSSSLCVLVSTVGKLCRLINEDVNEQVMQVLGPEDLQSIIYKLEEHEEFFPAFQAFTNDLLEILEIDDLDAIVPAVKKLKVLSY

Row | effect of a mutation on the interaction | Variant
14 | with no effect | S242L
15 | with no effect | A210V
